According to the supplement of paper PMC7877785:
± gives the uncertainty stated by the source.

Assay: self-splicing fitness, log relative to wild type (ln ratio); higher = more splicing; Tetrahymena group I intron in knt gene, E. coli kanamycin selection, DiMSum; sequences stand for … in CUCUCU…GGAGGGAAAAGUUAUCAGGCAUGCACCUGGUAGCUAGUCUUUAAACCAAUAGAUUGCAUCGGUUUAAAAGGCAAGACCGUCAAAUUGCGGGAAAGGGGUCAACAGCCGUUCAGUACCAAGUCUCAGGGGAAACUUUGAGAUGGCCUUGCAAAGGGUAUGGUAAUAAGCUGACGGACAUGGUCCUAACCACGCAGCCAAGUCCUAAGUCAACAGAUCUUCUGUUGAUAUGGAUGCAGUUCACAGACUAAAUGUCGGUCGGGGAAGAUGUAUUCUUCUCAUAAGAUAUAGUCGGACCUCUCCUUAAUGGGAGCUAGCGGAUGAAGUGAUGCAACACUGGAGCCGCUGGGAACUAAUUUGUAUGCGAAAGUAUAUUGAUUAGUUUUGGAGUACUCGUGGUCG
In short: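 The eight P1ex-region nucleotides of an intron in the knt kanamycin-resistance gene on pET-22b(+) were all randomised and the library put into E. coli BL21(DE3). Six replicate transformations were grown overnight at 37°C or 30°C on LB agar with or without 25 μg/mL kanamycin, together with 100 μg/mL carbenicillin, 50 μM IPTG and 0.2% rhamnose. Colonies were pooled and amplicon-sequenced on an Illumina HiSeq 2500. Fitness from DiMSum is the error-weighted combination of wild-type-normalised replicate fold changes, kanamycin over none.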

| Sequence | self-splicing fitness (ln) (30 °C) | self-splicing fitness (ln) (37 °C) |
| --- | --- | --- |
| UCCUAGCAAUAUUACGUAGA | -2.36 ± 0.05 | -0.729 ± 0.069 |
| UCCUAGCAAUAUUACGUAGG | -3.58 ± 0.19 | -2.21 ± 0.26 |
| UCCUAGCAAUAUUACGUCAC | -1.97 ± 0.2 | -2.6 ± 0.27 |
| UCCUAGCAAUAUUACGUCAG | -3.38 ± 0.29 | -2.41 ± 0.37 |
| UCCUAGCAAUAUUACGUCCA | -3.15 ± 0.48 | -1.56 ± 0.34 |
| UCCUAGCAAUAUUACGUGAU | -3.3 ± 0.28 | -1.9 ± 0.24 |
| UCCUAGCAAUAUUACGUGGG | -3.24 ± 0.15 | -2.5 ± 0.2 |
| UCCUAGCAAUAUUACGUGUA | -2.28 ± 0.18 | -1.09 ± 0.12 |
| UCCUAGCAAUAUUACGUUAU | -2.99 ± 0.19 | -2.59 ± 0.24 |
| UCCUAGCAAUAUUACGUUCG | -1.03 ± 0.16 | -2.28 ± 0.28 |
| UCCUAGCAAUAUUACGUUUG | -3.11 ± 0.17 | -3.36 ± 0.26 |
| UCGAAGCAAUAUUACGAAAG | -3.24 ± 0.23 | -2.47 ± 0.44 |
| UCGAAGCAAUAUUACGAACA | -0.799 ± 0.12 | -0.112 ± 0.14 |
| UCGAAGCAAUAUUACGAACG | -1.82 ± 0.13 | -0.935 ± 0.14 |
| UCGAAGCAAUAUUACGAAGU | -4.55 ± 0.32 | -1.43 ± 0.19 |
| UCGAAGCAAUAUUACGAGAC | -3.11 ± 0.22 |  |
| UCGAAGCAAUAUUACGAUGU | -1.82 ± 0.067 | -0.546 ± 0.085 |
| UCGAAGCAAUAUUACGCCAA | -2.4 ± 0.27 | -2.2 ± 0.37 |
| UCGAAGCAAUAUUACGCUAC | -2.18 ± 0.26 |  |
| UCGAAGCAAUAUUACGGCAU | -3.26 ± 0.2 | -1.62 ± 0.24 |
| UCGAAGCAAUAUUACGGCGG | -1.14 ± 0.11 | -0.364 ± 0.17 |
| UCGAAGCAAUAUUACGGGGG | -1.86 ± 0.18 | -1.39 ± 0.2 |
| UCGAAGCAAUAUUACGGGGU | -4.05 ± 0.21 | -2.25 ± 0.17 |
| UCGAAGCAAUAUUACGGGUA | -0.839 ± 0.062 | -0.123 ± 0.068 |
| UCGAAGCAAUAUUACGGUGG | -1.82 ± 0.094 | -1.55 ± 0.14 |
| UCGAAGCAAUAUUACGUAGC |  | -2.17 ± 0.31 |

| Sequence | self-splicing fitness (ln) (30 °C) | self-splicing fitness (ln) (37 °C) |
| --- | --- | --- |
| UCGAAGCAAUAUUACGUCGA | -3.65 ± 0.47 | -1.78 ± 0.19 |
| UCGAAGCAAUAUUACGUUGA | -2.05 ± 0.099 | -2.63 ± 0.13 |
| UCGCAGCAAUAUUACGAAAC |  | -3.1 ± 0.35 |
| UCGCAGCAAUAUUACGAACU | -3.13 ± 0.19 | -1.69 ± 0.17 |
| UCGCAGCAAUAUUACGAAGC | -3.52 ± 0.27 | -2.25 ± 0.25 |
| UCGCAGCAAUAUUACGACGG | -1.15 ± 0.069 | -0.0065 ± 0.1 |
| UCGCAGCAAUAUUACGACUG | -1.93 ± 0.14 | -2.7 ± 0.25 |
| UCGCAGCAAUAUUACGAGAA | -1.41 ± 0.34 | -0.949 ± 0.21 |
| UCGCAGCAAUAUUACGAUAU | -3.68 ± 0.3 | -2.41 ± 0.27 |
| UCGCAGCAAUAUUACGCGAG | -2.85 ± 0.15 | -2.56 ± 0.15 |
| UCGCAGCAAUAUUACGCUUU | -3.69 ± 0.18 | -1.84 ± 0.13 |
| UCGCAGCAAUAUUACGGCUG | -3.46 ± 0.24 | -2.45 ± 0.32 |
| UCGCAGCAAUAUUACGUCCA | -0.754 ± 0.086 | -0.0511 ± 0.094 |
| UCGCAGCAAUAUUACGUGAC | -5.1 ± 0.38 | -2.41 ± 0.26 |
| UCGCAGCAAUAUUACGUUGA | -3.11 ± 0.23 | -1.06 ± 0.14 |
| UCGGAGCAAUAUUACGAUCG | -1.22 ± 0.15 | -0.115 ± 0.15 |
| UCGGAGCAAUAUUACGCAUG | -3.6 ± 0.22 | -1.38 ± 0.17 |
| UCGGAGCAAUAUUACGCCGA | -3.12 ± 0.32 |  |
| UCGGAGCAAUAUUACGCUUU |  | -2.3 ± 0.49 |
| UCGGAGCAAUAUUACGGAUA | -2.51 ± 0.35 | -1.96 ± 0.29 |
| UCGGAGCAAUAUUACGGAUC | -3.21 ± 0.43 |  |
| UCGGAGCAAUAUUACGGUAG | -3.8 ± 0.35 | -2.8 ± 0.28 |
| UCGGAGCAAUAUUACGGUGU | -3.4 ± 0.31 | -1.7 ± 0.37 |
| UCGGAGCAAUAUUACGUACC | -2.84 ± 0.48 |  |
| UCGGAGCAAUAUUACGUCAC | -3.68 ± 0.43 | -2.68 ± 0.36 |
| UCGGAGCAAUAUUACGUCAG |  | -1.11 ± 0.34 |

| Sequence | self-splicing fitness (ln) (30 °C) | self-splicing fitness (ln) (37 °C) |
| --- | --- | --- |
| UCGGAGCAAUAUUACGUCUG | -2.56 ± 0.19 | -0.878 ± 0.24 |
| UCGGAGCAAUAUUACGUGCG | -2.06 ± 0.093 | -1.32 ± 0.11 |
| UCGGAGCAAUAUUACGUUAC | -1.87 ± 0.3 |  |
| UCGGAGCAAUAUUACGUUGA | -2.58 ± 0.25 | -1.22 ± 0.16 |
| UCGGAGCAAUAUUACGUUUU | -3.91 ± 0.4 |  |
| UCGUAGCAAUAUUACGACUA | -1.41 ± 0.19 | -0.0995 ± 0.15 |
| UCGUAGCAAUAUUACGAUCU | -1.92 ± 0.3 | -1.67 ± 0.37 |
| UCGUAGCAAUAUUACGAUGA | -0.769 ± 0.12 | -0.601 ± 0.13 |
| UCGUAGCAAUAUUACGCAAU | -3.7 ± 0.47 | -1.99 ± 0.31 |
| UCGUAGCAAUAUUACGCACG | -1.8 ± 0.23 | -0.584 ± 0.2 |
| UCGUAGCAAUAUUACGCUCA | -0.522 ± 0.13 | -0.556 ± 0.16 |
| UCGUAGCAAUAUUACGCUUA |  | -1.1 ± 0.47 |
| UCGUAGCAAUAUUACGCUUC | -3.12 ± 0.48 |  |
| UCGUAGCAAUAUUACGGGCA | -0.422 ± 0.14 | -0.0787 ± 0.13 |
| UCGUAGCAAUAUUACGGGGA | -2.6 ± 0.28 | -1.23 ± 0.23 |
| UCGUAGCAAUAUUACGGGGG | -3.07 ± 0.44 | -2 ± 0.47 |
| UCGUAGCAAUAUUACGUACG | -3.07 ± 0.24 | -1.96 ± 0.19 |
| UCGUAGCAAUAUUACGUAGC | -2.27 ± 0.43 |  |
| UCGUAGCAAUAUUACGUAUG | -2.04 ± 0.14 | -1.93 ± 0.2 |
| UCGUAGCAAUAUUACGUCCG | -0.957 ± 0.074 | -0.517 ± 0.091 |
| UCGUAGCAAUAUUACGUCGC |  | -1.37 ± 0.41 |
| UCGUAGCAAUAUUACGUCUU | -2.7 ± 0.15 | -0.44 ± 0.14 |
| UCGUAGCAAUAUUACGUGAC | -1.99 ± 0.26 |  |
| UCGUAGCAAUAUUACGUUAG | -3.83 ± 0.3 | -2.1 ± 0.46 |
| UCUAAGCAAUAUUACGACCC |  | -0.661 ± 0.44 |
| UCUAAGCAAUAUUACGAGGA | -3.5 ± 0.4 | -2.72 ± 0.44 |

| Sequence | self-splicing fitness (ln) (30 °C) | self-splicing fitness (ln) (37 °C) |
| --- | --- | --- |
| UCUAAGCAAUAUUACGAGGU | -2.8 ± 0.27 | -0.819 ± 0.17 |
| UCUAAGCAAUAUUACGAUUC | -3.14 ± 0.16 | -2.83 ± 0.23 |
| UCUAAGCAAUAUUACGCACG | -1.11 ± 0.19 | -1.8 ± 0.23 |
| UCUAAGCAAUAUUACGCCGG | -1.15 ± 0.13 | -0.186 ± 0.15 |
| UCUAAGCAAUAUUACGCCUA |  | -1.36 ± 0.26 |
| UCUAAGCAAUAUUACGCGAC |  | -2.84 ± 0.36 |
| UCUAAGCAAUAUUACGCGUA | -3.11 ± 0.2 | -2.27 ± 0.23 |
| UCUAAGCAAUAUUACGCUAU | -3.62 ± 0.31 | -3.37 ± 0.28 |
| UCUAAGCAAUAUUACGGAUG | -2.9 ± 0.26 | -1.99 ± 0.29 |
| UCUAAGCAAUAUUACGGAUU |  | -2.31 ± 0.23 |
| UCUAAGCAAUAUUACGGGAA | -2.29 ± 0.22 | -1.76 ± 0.14 |
| UCUAAGCAAUAUUACGGUCU | -3.41 ± 0.21 | -3.34 ± 0.31 |
| UCUAAGCAAUAUUACGGUGA | -0.587 ± 0.099 | -0.245 ± 0.1 |
| UCUAAGCAAUAUUACGUAGA | -1.2 ± 0.098 | -0.771 ± 0.15 |
| UCUAAGCAAUAUUACGUCAA | -2.57 ± 0.24 | -1.77 ± 0.27 |
| UCUAAGCAAUAUUACGUGUG | -1.02 ± 0.075 | -0.603 ± 0.1 |
| UCUAAGCAAUAUUACGUUCA | -2.37 ± 0.17 | -1.56 ± 0.15 |
| UCUCAGCAAUAUUACGACUA | -1.87 ± 0.12 | -1.37 ± 0.12 |
| UCUCAGCAAUAUUACGACUG | -2.79 ± 0.17 | -3.11 ± 0.28 |
| UCUCAGCAAUAUUACGAGAU | -4.62 ± 0.46 | -2.85 ± 0.35 |
| UCUCAGCAAUAUUACGAGCA | -0.507 ± 0.081 | 0.222 ± 0.12 |
| UCUCAGCAAUAUUACGAGCG | -0.123 ± 0.091 | -0.0856 ± 0.1 |
| UCUCAGCAAUAUUACGAGGU |  | -1.53 ± 0.25 |
| UCUCAGCAAUAUUACGCACC | -2.18 ± 0.42 |  |
